Measured values as given in publication PMC2991502 (Cytoskeleton (Hoboken, N.J.), 2010).

Molecular target: Rabbit skeletal muscle actin (rabbit, UniProt P68135 1-377)
Test: co-sedimentation

B1: FRL2 FH1-FH2 I649A (amino acids 447-945 of the mouse protein) (domain or fragment)
chain: TSNQVHTLRRLIKEKEEAFQRRCHLEPSARGLESMGGEALARVGPTELTEGIPPSDLDLLAPAPPTEETLPLPPPPAPPLPPPPPPLPDKCPPAPPLPGAAPSVVLTVGLSAIRIKKPIKTKFRLPVFNWTALKPNQINGTVFSELDDEKILEDLDLDRFEELFKTKAQGPALDLICSKNKTAQKAASKVTLLEANRAKNLAATLRKAGRSAEEICRAIHTFDLQTLPVDFVECLMRFLPTEAEVKLLRQYERERQPLEELAAEDRFMLLFSKVERLTQRMAGMAFLGNFQDNLQMLTPQLNAIIAASASVKSSQKLKQMLEIILALGNYMNSSKRGAVYGFKLQSLDLLLDTKSTDRKMTLLHFIALTVKEKYPELANFWQELHFVEKAAAVSLENVLLDVKELGRGMELIRRECSIHDNSVLRNFLSTNEGKLDKLQRDAKTAEEAYNAVVRYFGESPKTTPPSVFFPVFVRFIRSYKEAEQENEARKKQEEVMREK
binding result: binds
